Source: the Immune Epitope Database (IEDB)

Tests used:
HLA-B*08:01 [1] = experiment: IEDB peptide-MHC binding, purified MHC/direct/fluorescence; filed as Kd, often an IC50 or EC50 that approximates it; ≥ and ≤ were set here for values at or beyond the usual limits of such assays
HLA-B*15:17 [2] = experiment: as above; details: source organism: Mycobacterium tuberculosis
HLA-B*46:01 = experiment: as above
HLA-B*40:01 = experiment: as above
HLA-B*58:01 = experiment: as above
HLA-A*11:01 = experiment: as above; details: source organism: Mycobacterium tuberculosis
HLA-A*31:01 = experiment: as above; details: source organism: Mycobacterium tuberculosis
HLA-B*18:01 = experiment: as above
HLA-A*02:01 [3] = experiment: as above
HLA-B*15:01 [4] = experiment: as above
HLA-B*39:01 = experiment: as above
HLA-B*27:05 = experiment: as above
HLA-B*51:01 = experiment: as above; details: source organism: Mycobacterium tuberculosis
HLA-A*03:01 = experiment: as above; details: source organism: Mycobacterium tuberculosis
HLA-B*57:01 = experiment: as above
HLA-A*01:01 [5] = experiment: as above
HLA-B*48:01 = experiment: as above
HLA-A*69:01 = experiment: as above
HLA-B*38:01 = experiment: as above
HLA-B*08:01 [6] = experiment: IEDB peptide-MHC binding, purified MHC/competitive/fluorescence; ≥ and ≤ were set here for values at or beyond the usual limits of such assays
HLA-A*24:02 [7] = experiment: as above
HLA-B*15:01 [8] = experiment: as above; details: source organism: Zaire ebolavirus
HLA-A*26:01 = experiment: IEDB peptide-MHC binding, purified MHC/direct/fluorescence; filed as Kd, often an IC50 or EC50 that approximates it; ≥ and ≤ were set here for values at or beyond the usual limits of such assays
HLA-A*68:02 [9] = experiment: as above; details: source organism: Marburg virus - Musoke, Kenya, 1980
HLA-B*15:09 = experiment: as above; details: source organism: Ravn virus - Ravn, Kenya, 1987
HLA-B*08:02 = experiment: as above; details: source organism: Ravn virus - Ravn, Kenya, 1987
HLA-B*07:02 = experiment: as above; details: source organism: Marburg virus - Musoke, Kenya, 1980
HLA-B*15:17 [10] = experiment: IEDB peptide-MHC binding, purified MHC/competitive/fluorescence; filed as Kd, often an IC50 or EC50 that approximates it; ≥ and ≤ were set here for values at or beyond the usual limits of such assays; details: source organism: Orthomarburgvirus marburgense
HLA-B*35:01 = experiment: as above; details: source organism: Orthomarburgvirus marburgense
HLA-B*15:01 [11] = experiment: as above; details: source organism: Orthomarburgvirus marburgense
HLA-A*26:02 = experiment: as above; details: source organism: Orthomarburgvirus marburgense
HLA-C*03:03 = experiment: IEDB peptide-MHC binding, purified MHC/direct/fluorescence; filed as Kd, often an IC50 or EC50 that approximates it; ≥ and ≤ were set here for values at or beyond the usual limits of such assays; details: source organism: Orthomarburgvirus marburgense
HLA-A*68:02 [12] = experiment: IEDB peptide-MHC binding, purified MHC/competitive/fluorescence; filed as Kd, often an IC50 or EC50 that approximates it; ≥ and ≤ were set here for values at or beyond the usual limits of such assays; details: source organism: Orthomarburgvirus marburgense
HLA-A*02:01 [13] = experiment: as above; details: source organism: Orthomarburgvirus marburgense
HLA-A*02:06 = experiment: as above; details: source organism: Orthomarburgvirus marburgense
HLA-A*01:01 [14] = experiment: as above; details: source organism: Orthomarburgvirus marburgense
HLA-C*04:01 = experiment: IEDB peptide-MHC binding, purified MHC/direct/fluorescence; filed as Kd, often an IC50 or EC50 that approximates it; ≥ and ≤ were set here for values at or beyond the usual limits of such assays
HLA-A*24:02 [15] = experiment: IEDB peptide-MHC binding, purified MHC/competitive/fluorescence; filed as Kd, often an IC50 or EC50 that approximates it; ≥ and ≤ were set here for values at or beyond the usual limits of such assays
HLA-A*02:01 [16] = experiment: IEDB peptide-MHC binding, purified MHC/competitive/fluorescence; ≥ and ≤ were set here for values at or beyond the usual limits of such assays; details: source organism: Variola virus
HLA-B*08:01 [17] = experiment: IEDB peptide-MHC binding, purified MHC/competitive/fluorescence; filed as Kd, often an IC50 or EC50 that approximates it; ≥ and ≤ were set here for values at or beyond the usual limits of such assays; details: source organism: Mycobacterium tuberculosis variant bovis BCG str. Pasteur 1173P2
[18] = source organism: Mycobacterium tuberculosis str. Haarlem
[19] = source organism: Mycobacterium tuberculosis
[20] = source organism: Zaire ebolavirus
[21] = source organism: Vaccinia virus Copenhagen
[22] = source organism: Ravn virus - Ravn, Kenya, 1987
[23] = source organism: Marburg virus - Musoke, Kenya, 1980
[24] = source organism: Salmonella enterica subsp. enterica serovar Typhi str. CT18
[25] = source organism: Rickettsia typhi str. Wilmington

Sequence: APAKKAAPA
- Kd (HLA-B*08:01 [1]; [18]): 0.077 µM
- Kd (HLA-B*15:17 [2]): ≥ 20 µM
- Kd (HLA-B*46:01; [19]): ≥ 20 µM
- Kd (HLA-B*40:01; [19]): ≥ 20 µM
- Kd (HLA-B*58:01; [19]): ≥ 20 µM
- Kd (HLA-A*11:01): ≥ 20 µM
- Kd (HLA-A*31:01): ≥ 20 µM
- Kd (HLA-B*18:01; [19]): ≥ 20 µM
- Kd (HLA-A*02:01 [3]; [19]): ≥ 20 µM
- Kd (HLA-B*15:01 [4]; [19]): ≥ 20 µM
- Kd (HLA-B*39:01; [18]): ≥ 20 µM
- Kd (HLA-B*27:05; [19]): ≥ 20 µM
- Kd (HLA-B*51:01): ≥ 20 µM
- Kd (HLA-A*03:01): ≥ 20 µM
- Kd (HLA-B*57:01; [19]): ≥ 20 µM
- Kd (HLA-A*01:01 [5]; [19]): ≥ 20 µM
- Kd (HLA-B*48:01; [19]): ≥ 20 µM
- Kd (HLA-A*69:01; [19]): ≥ 20 µM
- Kd (HLA-B*38:01; [18]): ≥ 20 µM

Sequence: DRFKRTSFF
- IC50 (HLA-B*08:01 [6]; [20]): 5.43 µM
- IC50 (HLA-A*24:02 [7]; [20]): 1.22 µM
- IC50 (HLA-B*15:01 [8]): ≥ 181 µM

Sequence: GYFLKIKVT
- IC50 (HLA-B*08:01 [6]; [21]): ≥ 231 µM
- IC50 (HLA-A*24:02 [7]; [21]): ≥ 215 µM

Sequence: IHLDKGGQF
- Kd (HLA-B*08:01 [1]; [22]): ≥ 20 µM
- Kd (HLA-B*46:01; [23]): ≥ 20 µM
- Kd (HLA-B*40:01; [23]): ≥ 20 µM
- Kd (HLA-A*26:01; [22]): ≥ 20 µM
- Kd (HLA-B*58:01; [23]): ≥ 20 µM
- Kd (HLA-A*68:02 [9]): ≥ 20 µM
- Kd (HLA-B*18:01; [23]): ≥ 20 µM
- Kd (HLA-B*15:09): 7.14 µM
- Kd (HLA-A*02:01 [3]; [23]): ≥ 20 µM
- Kd (HLA-B*39:01; [23]): ≥ 20 µM
- Kd (HLA-B*27:05; [23]): ≥ 20 µM
- Kd (HLA-B*57:01; [23]): ≥ 20 µM
- Kd (HLA-A*01:01 [5]; [23]): ≥ 20 µM
- Kd (HLA-B*48:01; [23]): ≥ 20 µM
- Kd (HLA-A*69:01; [23]): ≥ 20 µM
- Kd (HLA-B*38:01; [22]): ≥ 20 µM
- Kd (HLA-B*08:02): ≥ 20 µM
- Kd (HLA-B*07:02): ≥ 20 µM
- Kd (HLA-B*15:17 [10]): ≥ 20 µM
- Kd (HLA-B*35:01): ≥ 20 µM
- Kd (HLA-B*15:01 [11]): ≥ 20 µM
- Kd (HLA-A*26:02): ≥ 20 µM

Sequence: ISDPLTSGL
- Kd (HLA-B*08:01 [1]; [22]): ≥ 20 µM
- Kd (HLA-B*46:01; [23]): ≥ 20 µM
- Kd (HLA-B*40:01; [23]): ≥ 20 µM
- Kd (HLA-A*26:01; [22]): ≥ 20 µM
- Kd (HLA-B*58:01; [23]): 0.415 µM
- Kd (HLA-B*18:01; [23]): ≥ 20 µM
- Kd (HLA-B*15:01 [4]; [23]): ≥ 20 µM
- Kd (HLA-B*39:01; [23]): ≥ 20 µM
- Kd (HLA-B*27:05; [23]): ≥ 20 µM
- Kd (HLA-B*57:01; [23]): ≥ 20 µM
- Kd (HLA-B*48:01; [23]): ≥ 20 µM
- Kd (HLA-B*38:01; [22]): 5.03 µM
- Kd (HLA-B*07:02): ≥ 20 µM
- Kd (HLA-C*03:03): ≥ 20 µM
- Kd (HLA-B*15:17 [10]): 0.0132 µM
- Kd (HLA-B*35:01): ≥ 20 µM
- Kd (HLA-A*68:02 [12]): ≥ 20 µM
- Kd (HLA-A*02:01 [13]): 0.0681 µM
- Kd (HLA-A*02:06): 0.0206 µM
- Kd (HLA-A*01:01 [14]): 1.03 µM

Sequence: IYASRPLDF
- Kd (HLA-C*04:01; [24]): ≥ 20 µM
- Kd (HLA-A*24:02 [15]; [24]): ≤ 0.0001 µM

Sequence: IYYWTAWLI
- Kd (HLA-C*04:01; [25]): ≥ 20 µM
- Kd (HLA-A*24:02 [15]; [25]): 0.0017 µM

Sequence: LSLPRIALV
- IC50 (HLA-B*08:01 [6]; source organism: Variola virus): ≥ 285 µM
- IC50 (HLA-A*02:01 [16]): 0.617 µM

Sequence: SPRSRNRSF
- Kd (HLA-B*15:17 [2]): ≥ 20 µM
- Kd (HLA-B*46:01; [19]): ≥ 20 µM
- Kd (HLA-B*40:01; [19]): ≥ 20 µM
- Kd (HLA-A*26:01; [18]): ≥ 20 µM
- Kd (HLA-B*58:01; [19]): ≥ 20 µM
- Kd (HLA-A*11:01): ≥ 20 µM
- Kd (HLA-A*31:01): ≥ 20 µM
- Kd (HLA-B*18:01; [19]): ≥ 20 µM
- Kd (HLA-A*02:01 [3]; [19]): ≥ 20 µM
- Kd (HLA-B*15:01 [4]; [19]): ≥ 20 µM
- Kd (HLA-B*39:01; [18]): ≥ 20 µM
- Kd (HLA-B*27:05; [19]): ≥ 20 µM
- Kd (HLA-B*51:01): ≥ 20 µM
- Kd (HLA-A*03:01): ≥ 20 µM
- Kd (HLA-B*57:01; [19]): ≥ 20 µM
- Kd (HLA-A*01:01 [5]; [19]): ≥ 20 µM
- Kd (HLA-B*48:01; [19]): ≥ 20 µM
- Kd (HLA-A*69:01; [19]): ≥ 20 µM
- Kd (HLA-B*38:01; [18]): ≥ 20 µM
- Kd (HLA-B*08:01 [17]): 0.123 µM

Sequence: VMPLLVWLF
- Kd (HLA-A*24:02 [15]; source organism: Campylobacter jejuni subsp. jejuni NCTC 11168 = ATCC 700819): 0.0029 µM
